In US20070099822A1, “Regulation of tissue mineralization and phosphate metabolism by asarm peptides” (priority 2003, published 2007):
Several values for one entry are separate records, joined by “and”; a condition that tells them apart may be missing. Equal entries are not always repeated. Entries after “also recorded” stand apart in the source; their conditions may differ.

Assays:
[1] = test system: Na+ dependent phosphate co-transport in primary human renal proximal tubule epithelial cells (RPTEC); experiment: 33PO4 uptake scintillation proximity assay (SPA) in RPTEC; assay type: cell-based
Experimental: Measurement of ^33PO4 uptake and ^14C-α-methyl D-glucose uptake. A novel technique, scintillation proximity assay (SPA), was used to measure ^33PO4 uptake in-vitro. Human renal proximal-tubule primary cells (RPTEC) were purchased from Clonetics-Biowhittaker (Walkersville, Md.) (cat. no. CC2553) and were cultured and subcultured using the manufacturers recommended protocols, methods, buffers and media (cat. nos. CC3190, CC5034). Also a human renal cell-line (Hu-CL8) was cultured as previously described (Rowe et al. Candidate 56 and 58 kDa protein(s) responsible for mediating the renal defects in oncogenic hypophosphatemic osteomalacia. Bone 18(2):159-169, 1996). For ^33PO4-uptake measurement cells were grown in REBM media supplemented with 5% fetal calf serum (REBM-FCS) to 80% confluence (Clonetics-Biowhitaker, Walkersville, Md.: cat. nos. CC2553, CC3190 and CC5034) and seeded into 96 well (3000 cells/well) cytostar-T scintillating-microplates (Amersham-Pharmacia Biotech, Piscataway, N.J.: cat. no. RPNQ 0162). Cells were then cultured in 200 μL of REBM-FCS media for 24 h. Media was then replaced with serum free media (REBM) and the cells incubated for a further 3-4 h with Hu-MEPE, PTH (1-34) or media control respectively in REBM media. The concentrations of PTH (1-34) and Hu-MEPE were […] and each experimental dose was repeated eight times for statistical analysis. Following incubation media was removed and replaced with either phosphate uptake buffer (PUB) consisting of 150 mM NaCl/1 mM Cacl2/1.8 mM MgSO4/10 mM HEPE pH 7.0/0.1 mM phosphate buffer pH 7.0 and 3 uCi mL^−1 33P as orthophosphoric acid (18 MBq/mL or 5775.7 Gbq/mg stock solution Perkin Elmer, Wellesley, Mass.: cat. no. NEZ080). In order to determine the Na-dependent phosphate co-transporter activity a separate set of control cells were incubated with the same buffer but with choline chloride (150 mM) substituted for NaCl (CHUB buffer). After 10 min at 37° C. the reaction was terminated by removing the PUB and CHUB buffers and replacing with STOP buffer (CHUB buffer without radioisotope). The cytostar scintillation plates were then directly assayed for counts (CPM) using a Hewlett-Packard (Palo Alto, Calif.) Multiplate Top-counter calibrated for ^33P SPA assay. Due to the unique design of the 96 well cytostar-plate radioactive decay in solution is not detected by the counter. In contrast, radioisotope attached to or taken into the cells initiates release of plastic-scintillant photons that are detected by the top-counter photo-multiplier tube. Thus, no washes are required and direct CPM can be counted in living cells. Following CPM determination the buffers were removed from the living cells and fresh media supplemented with cell-titre-96 (Promega-Biotech, Madison, Wis.: cat. no. G5421) cell-number detection media. Cells were then further incubated at 37° C. for 4 h. Conversion of a tetrazolium salt to a colored formazan product by living cells was then measured at 490 nm using a 96 well multi-well spectrophotometer with KC-4 software (absorbance at 490 nm is directly proportional to the number of living cells). Na-dependent ^33P uptake was then calculated by subtracting background counts and the choline chloride non Na-dependent ^33P uptake and results expressed as ^33PO4 femtomoles/10^4-cells/6 min. […]

CHO cell tumors = experiment: Example IV: CHO cell tumors expressing MEPE in athymic nude mice; assay type: in vivo
Experimental: Six groups of athymic nude mice were injected with the one of the following: normal saline, CHO cells, CHO cells containing an empty vector, CHO cells expressing MEPE (CHO-MEPE), CHO cells expressing PHEX (CHO-PHEX), and CHO cells expressing PHEX and MEPE (CHO-PHEX-MEPE). Tumor size was assessed based on combined tumor weight at nine different time points.

B1: Hu-MEPE: purified insect expressed full-length recombinant human MEPE (Matrix Extracellular Phosphoglycoprotein) (protein)
chain: PTFQPQTEKTKQSCVEEQRQEEKNKDNIGFHHLGKRINQELSSKENIVQERKKDLSLSEASENKGSSKSQNYFTNRQRLNKEYSISNKENTHNGLRMSIYPKSTGNKGFEDGDDAISKLHDQEEYGAALIRNNMQHIMGPVTAIKLLGEENKENTPRNVLNIIPASMNYAKAHSKDKKKPQRDSQAQKSPVKSKSTHRIQHNIDYLKHLSKVKKIPSDFEGSGYTDLQERGDNDISPFSGDGQPFKDIPGKGEATGPDLEGKDIQTGFAGPSEAESTHLDTKKPGYNEIPEREENGGNTIGTRDETAKEADAVDVSLVEGSNDIMGSTNFKELPGREGNRVDAGSQNAHQGKVEFHYPPAPSKEKRKEGSSDAAESTNYNEIPKNGKGSTRKGVDHSNRNQATLNEKQRFPSKGKSQGLPIPSRGLDNEIKNEMDSFNGPSHENIITHGRKYHYVPHRQNNSTRNKGMPQGKGSWGRQPHSNRRFSSRRRDDSSESSDSGSSSESDGD
Vmax of percentage inhibition of 33PO4-uptake [1]: 53.4% | inhibition of Na+ dependent phosphate co-transport [1]: dose-dependent in-vitro inhibition | Km of inhibition of 33PO4-uptake ([1]; lineweaver-burke plot): 27.4 ng/mL and 27.39 ng/mL | tumor size (combined tumor weight) (CHO cell tumors; CHO cells expressing MEPE vs CHO cells with empty vector, nude mice): significantly reduced; also recorded: dramatically reduced size | 1,25-vitamin D3 serum levels (CHO cell tumors; CHO-MEPE and CHO-PHEX-MEPE groups vs groups not expressing MEPE): decrease in serum levels | serum phosphate (CHO cell tumors; after thirteen days, CHO-MEPE and CHO-PHEX-MEPE groups): hypophosphatemia; also recorded: decrease in serum phosphate
